One assay deals with T1, Aβ(1–40) oligomers (Homo sapiens, UniProt P05067).
T1 construct: β-amyloid peptide Aβ(1–40), the 40 amino acid isoform, cut product of the amyloid precursor protein; numbers count on: the Aβ peptide; Oligomeric assembly state; also called Aβ(1–40) intermediates; Aβ(1-40)-derived oligomers; source: oligomers prepared in 100% HFIP, diluted 10-fold with water, supernatant after 14,000 x g
Nature of the assay: far-Western, overlay or dot blot; spot blot: 1–20 μg of each Aβ species (oligomers/intermediates or fibrils) on nitrocellulose, blocked with 2% BSA in TBST; 4 μg/ml B10AP or KW1AP in TBST for 1 h, room temperature; NBT/BCIP; densitometry. As to conditions: both partners purified.

Assay [1] deals with T2, Aβ(1–40) expressed in Drosophila (KW1;Aβ40 flies) (Homo sapiens (expressed in Drosophila), UniProt P05067).
T2 construct: β-amyloid peptide Aβ(1–40); numbers count on: the Aβ peptide; Assembly state of the peptide in the fly homogenate is not defined; source: transgenic Drosophila melanogaster (Gal4-elav c155 driver, neuronal), in head homogenate of 20-day old flies
Nature of the assay: co-IP; head homogenates of 20-day old KW1;Aβ40 flies incubated with blocked protein A magnetic beads without antibody (fly KW1 binds the beads directly); PBS + 0.025% TritonX-100, room temperature; elution with 50 mM glycine pH 2.8; WB with 6E10 (Aβ) and anti-myc (KW1). The settings on record: partners not purified.

The target of the next assay is T3, Aβ(1–40) fibrils (Homo sapiens, UniProt P05067).
T3 construct: β-amyloid peptide Aβ(1–40), the 40 amino acid isoform, cut product of the amyloid precursor protein; numbers count on: the Aβ peptide; Fibrillar assembly state; also called Aβ(1–40) amyloid fibrils; source: fibrils formed at 1 mg/ml in 50 mM sodium borate, pH 9.0, 5 days, room temperature
Put plainly: far-Western, overlay or dot blot; spot blot: 1–20 μg of each Aβ species (oligomers/intermediates or fibrils) on nitrocellulose, blocked with 2% BSA in TBST; 4 μg/ml B10AP or KW1AP in TBST for 1 h, room temperature; NBT/BCIP; densitometry. The settings on record: both partners purified.

The next assay concerns the target T4, Aβ(1–42) fibrils (Homo sapiens, UniProt P05067).
T4 construct: β-amyloid peptide Aβ(1–42), the 42 amino acid isoform, cut product of the amyloid precursor protein; numbers count on: the Aβ peptide; Fibrillar assembly state; also called Aβ(1–42) amyloid fibrils; source: synthetic peptide (Dr. Sven Rothemund, University Leipzig); fibrils formed at 1 mg/ml in 50 mM sodium borate, pH 9.0, 5 days, room temperature
Described as above. The settings on record: both partners purified.

The values below come from PMC4029271, “Oligomer-targeting with a conformational antibody fragment promotes toxicity in Aβ-expressing flies” (Acta Neuropathologica Communications, 2014).

B1: KW1AP (alkaline phosphatase coupled KW1 antibody fragment) (VHH)
VHH: EVQLVESGGGSVQPGGSLRLSCTASGYTFSQEFVIWFRQAPGKEREIVSGISLRKGWTYYADSVKGRFTISQDNAKNTVYLQMNNLKPEDTAMYYCAAAPTATHALYFDYWGQGTQVTVSS
notes: KW1, phage display selected from a fully synthetic library of camelid heavy chain antibody fragments; crystal structure of KW1 is PDB 3TPK; The introduction speaks of bivalent KW1 in earlier work; also called AP coupled KW1
In the case of B1, the binding result with Aβ(1–40) oligomers is reported as “binds”.

B2: fly KW1 (myc-tagged KW1 antibody fragment expressed in Drosophila neurons) (VHH)
VHH: EVQLVESGGGSVQPGGSLRLSCTASGYTFSQEFVIWFRQAPGKEREIVSGISLRKGWTYYADSVKGRFTISQDNAKNTVYLQMNNLKPEDTAMYYCAAAPTATHALYFDYWGQGTQVTVSS
notes: KW1 as in m1; crystal structure PDB 3TPK; Expressed with an N-terminal secretion signal peptide (SSP) from the Drosophila necrotic gene; Band at ~17 kDa on anti-myc Western blot; source: transgenic Drosophila melanogaster (Gal4-elav c155 driver, neuronal), in head homogenate; not shown: myc, C-terminal, kept
On to B2, for which, in assay [1], the binding result was “binds”.

B3: B10AP (alkaline phosphatase coupled B10 antibody fragment) (VHH)
VHH: EVQLVESGGGLVQPGGSLRLSCTASGYTFSHRYHRWFRQAPGKEREIVAVISQSGMRTYYADSVKGRFTISRDNAKNTVYLQMNSLKPEDTAMYYCAAGTRKNVWTRQHPFDYWGQGTQVTVSS
notes: B10, phage display selected from a fully synthetic library of camelid heavy chain antibody fragments; crystal structure of B10 is PDB 3LN9; The introduction speaks of bivalent B10 in earlier work; also called AP coupled B10
With B3, the binding result with Aβ(1–40) fibrils and in the assay with Aβ(1–42) fibrils was “binds” in each case.
